Where a chain is given by its changes, count along the chain named. Numbers in names are those of the source.
B1: L235F/S239D/L328Y (antibody, human IgG1, kappa)
heavy: EVQLVESGGGLVKPGGSLKLSCAASGYTFTSYVMHWVRQAPGKGLEWIGYINPYNDGTKYNEKFQGRVTISSDKSISTAYMELSSLRSEDTAMYYCARGTYYYGTRVFDYWGQGTLVTVSSASTKGPSVFPLAPSSKSTSGGTAALGCLVKDYFPEPVTVSWNSGALTSGVHTFPAVLQSSGLYSLSSVVTVPSSSLGTQTYICNVNHKPSNTKVDKKVEPKSCDKTHTCPPCPAPELFGGPDVFLFPPKPKDTLMISRTPEVTCVVVDVSHEDPEVKFNWYVDGVEVHNAKTKPREEQYNSTYRVVSVLTVLHQDWLNGKEYKCKVSNKAYPAPIEKTISKAKGQPREPQVYTLPPSREEMTKNQVSLTCLVKGFYPSDIAVEWESNGQPENNYKTTPPVLDSDGSFFLYSKLTVDKSRWQQGNVFSCSVMHEALHNHYTQKSLSLSPGK
light: DIVMTQSPATLSLSPGERATLSCRSSKSLQNVNGNTYLYWFQQKPGQSPQLLIYRMSNLNSGVPDRFSGSGSGTEFTLTISSLEPEDFAVYYCMQHLEYPITFGAGTKLEIKRTVAAPSVFIFPPSDEQLKSGTASVVCLLNNFYPREAKVQWKVDNALQSGNSQESVTEQDSKDSTYSLSSTLTLSKADYEKHKVYACEVTHQGLSSPVTKSFNRGEC
notes: HuAM4G7 IgG1 Fc variant
B2: S239D/L328F/I332E (antibody, human IgG1, kappa)
heavy: B1 heavy with F239L, Y332F, I336E
light: B1 light
notes: HuAM4G7 IgG1 Fc variant
B3: L328E (antibody, human IgG1, kappa)
heavy: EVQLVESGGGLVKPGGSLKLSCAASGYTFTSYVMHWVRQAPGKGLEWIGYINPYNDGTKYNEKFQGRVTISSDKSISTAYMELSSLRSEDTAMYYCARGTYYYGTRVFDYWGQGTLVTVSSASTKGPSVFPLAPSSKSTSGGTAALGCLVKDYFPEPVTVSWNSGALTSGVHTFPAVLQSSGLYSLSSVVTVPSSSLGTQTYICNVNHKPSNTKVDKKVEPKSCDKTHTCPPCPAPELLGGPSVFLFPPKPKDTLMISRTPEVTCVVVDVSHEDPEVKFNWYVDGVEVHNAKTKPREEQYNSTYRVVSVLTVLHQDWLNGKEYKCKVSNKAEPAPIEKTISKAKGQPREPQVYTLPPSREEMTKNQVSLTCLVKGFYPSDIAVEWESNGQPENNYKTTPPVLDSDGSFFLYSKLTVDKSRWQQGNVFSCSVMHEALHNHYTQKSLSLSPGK
light: B1 light
notes: HuAM4G7 IgG1 Fc variant
B4: S239D/H268E/L328Y (antibody, human IgG1, kappa)
heavy: B1 heavy with F239L, H272E
light: B1 light
notes: HuAM4G7 IgG1 Fc variant
B5: S239D/H268D/L328F/I332E (antibody, human IgG1, kappa)
heavy: B1 heavy with F239L, H272D, Y332F, I336E
light: B1 light
notes: HuAM4G7 IgG1 Fc variant
B6: S239D/H268D (antibody, human IgG1, kappa)
heavy: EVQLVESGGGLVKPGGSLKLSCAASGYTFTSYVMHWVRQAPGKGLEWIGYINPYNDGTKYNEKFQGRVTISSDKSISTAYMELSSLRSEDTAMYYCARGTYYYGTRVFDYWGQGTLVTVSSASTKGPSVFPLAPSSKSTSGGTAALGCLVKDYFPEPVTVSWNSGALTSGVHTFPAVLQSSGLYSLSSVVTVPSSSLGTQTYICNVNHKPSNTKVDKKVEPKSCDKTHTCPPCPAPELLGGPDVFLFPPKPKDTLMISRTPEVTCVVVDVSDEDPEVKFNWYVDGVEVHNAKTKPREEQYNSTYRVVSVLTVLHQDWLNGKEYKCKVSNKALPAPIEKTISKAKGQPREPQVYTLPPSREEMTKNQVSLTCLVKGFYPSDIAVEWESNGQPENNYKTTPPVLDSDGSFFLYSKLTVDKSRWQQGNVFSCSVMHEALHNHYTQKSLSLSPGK
light: B1 light
notes: HuAM4G7 IgG1 Fc variant
B7: S239D/S267D (antibody, human IgG1, kappa)
heavy: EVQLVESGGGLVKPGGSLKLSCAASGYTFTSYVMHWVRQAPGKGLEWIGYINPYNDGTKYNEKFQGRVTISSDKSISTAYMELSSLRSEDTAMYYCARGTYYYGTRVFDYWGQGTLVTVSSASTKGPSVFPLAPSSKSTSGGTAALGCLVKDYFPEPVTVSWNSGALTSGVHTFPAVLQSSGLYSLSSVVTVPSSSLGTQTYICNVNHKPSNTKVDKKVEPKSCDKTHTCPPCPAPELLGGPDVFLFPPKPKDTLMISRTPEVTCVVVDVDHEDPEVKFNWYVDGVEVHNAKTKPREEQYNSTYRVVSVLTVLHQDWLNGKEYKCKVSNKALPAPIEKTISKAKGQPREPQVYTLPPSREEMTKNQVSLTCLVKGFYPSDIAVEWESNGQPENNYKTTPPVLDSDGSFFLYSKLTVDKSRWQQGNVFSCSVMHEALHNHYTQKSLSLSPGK
light: B1 light
notes: HuAM4G7 IgG1 Fc variant
B8: P331S (antibody, human IgG1, kappa)
heavy: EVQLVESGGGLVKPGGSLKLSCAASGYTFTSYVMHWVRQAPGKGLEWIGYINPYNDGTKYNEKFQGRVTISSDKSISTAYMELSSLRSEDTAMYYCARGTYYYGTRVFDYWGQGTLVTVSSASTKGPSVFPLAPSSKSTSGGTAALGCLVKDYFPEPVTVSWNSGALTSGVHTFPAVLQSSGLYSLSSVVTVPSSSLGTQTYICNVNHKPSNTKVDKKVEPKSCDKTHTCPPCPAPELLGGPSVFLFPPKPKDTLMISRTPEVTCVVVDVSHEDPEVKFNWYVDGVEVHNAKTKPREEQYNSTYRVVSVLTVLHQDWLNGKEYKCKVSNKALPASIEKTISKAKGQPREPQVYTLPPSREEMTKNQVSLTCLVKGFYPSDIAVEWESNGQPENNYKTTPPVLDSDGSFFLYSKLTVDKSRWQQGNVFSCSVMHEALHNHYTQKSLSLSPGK
light: B1 light
notes: HuAM4G7 IgG1 Fc variant
B9: S239D/K326D/L328Y (antibody, human IgG1, kappa)
heavy: B1 heavy with F239L, K330D
light: B1 light
notes: HuAM4G7 IgG1 Fc variant
B10: S239D/A327D/L328Y (antibody, human IgG1, kappa)
heavy: B1 heavy with F239L, A331D
light: B1 light
notes: HuAM4G7 IgG1 Fc variant
B11: S239D/H268D/L328Y/I332E (antibody, human IgG1, kappa)
heavy: B1 heavy with F239L, H272D, I336E
light: B1 light
notes: HuAM4G7 IgG1 Fc variant
B12: L235Y/S267D (antibody, human IgG1, kappa)
heavy: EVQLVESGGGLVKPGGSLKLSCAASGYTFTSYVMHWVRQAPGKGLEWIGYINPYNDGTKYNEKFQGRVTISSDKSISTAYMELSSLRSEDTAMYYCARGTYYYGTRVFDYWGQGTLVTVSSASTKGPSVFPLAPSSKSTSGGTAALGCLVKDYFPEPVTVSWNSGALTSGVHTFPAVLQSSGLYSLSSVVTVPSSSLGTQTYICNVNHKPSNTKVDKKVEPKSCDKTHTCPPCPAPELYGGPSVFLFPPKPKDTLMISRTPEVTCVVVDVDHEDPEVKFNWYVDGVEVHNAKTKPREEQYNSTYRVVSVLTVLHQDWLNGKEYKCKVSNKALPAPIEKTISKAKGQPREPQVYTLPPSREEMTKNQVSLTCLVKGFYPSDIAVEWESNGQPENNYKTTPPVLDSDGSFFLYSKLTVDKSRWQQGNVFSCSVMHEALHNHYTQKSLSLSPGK
light: B1 light
notes: HuAM4G7 IgG1 Fc variant
B13: S239D/H268D/L328Y (antibody, human IgG1, kappa)
heavy: B1 heavy with F239L, H272D
light: B1 light
notes: HuAM4G7 IgG1 Fc variant
B14: L328Y/I332E (antibody, human IgG1, kappa)
heavy: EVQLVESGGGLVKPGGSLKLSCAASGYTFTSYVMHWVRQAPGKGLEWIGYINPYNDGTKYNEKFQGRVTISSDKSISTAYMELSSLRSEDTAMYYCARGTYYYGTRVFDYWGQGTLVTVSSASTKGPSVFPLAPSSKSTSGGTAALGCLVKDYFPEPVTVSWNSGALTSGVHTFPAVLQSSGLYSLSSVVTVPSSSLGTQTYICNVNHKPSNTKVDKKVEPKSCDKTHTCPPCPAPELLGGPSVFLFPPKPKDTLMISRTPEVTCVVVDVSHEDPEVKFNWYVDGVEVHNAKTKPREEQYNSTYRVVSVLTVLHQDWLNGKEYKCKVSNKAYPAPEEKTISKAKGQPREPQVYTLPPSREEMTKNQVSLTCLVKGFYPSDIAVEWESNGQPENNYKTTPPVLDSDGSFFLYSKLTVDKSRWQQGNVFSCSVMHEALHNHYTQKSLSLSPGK
light: B1 light
notes: HuAM4G7 IgG1 Fc variant
B15: S239D/H268D/L328W/I332E (antibody, human IgG1, kappa)
heavy: B1 heavy with F239L, H272D, Y332W, I336E
light: B1 light
notes: HuAM4G7 IgG1 Fc variant
B16: S239D/L328Y/I332E (antibody, human IgG1, kappa)
heavy: B1 heavy with F239L, I336E
light: B1 light
notes: HuAM4G7 IgG1 Fc variant
B17: L235W (antibody, human IgG1, kappa)
heavy: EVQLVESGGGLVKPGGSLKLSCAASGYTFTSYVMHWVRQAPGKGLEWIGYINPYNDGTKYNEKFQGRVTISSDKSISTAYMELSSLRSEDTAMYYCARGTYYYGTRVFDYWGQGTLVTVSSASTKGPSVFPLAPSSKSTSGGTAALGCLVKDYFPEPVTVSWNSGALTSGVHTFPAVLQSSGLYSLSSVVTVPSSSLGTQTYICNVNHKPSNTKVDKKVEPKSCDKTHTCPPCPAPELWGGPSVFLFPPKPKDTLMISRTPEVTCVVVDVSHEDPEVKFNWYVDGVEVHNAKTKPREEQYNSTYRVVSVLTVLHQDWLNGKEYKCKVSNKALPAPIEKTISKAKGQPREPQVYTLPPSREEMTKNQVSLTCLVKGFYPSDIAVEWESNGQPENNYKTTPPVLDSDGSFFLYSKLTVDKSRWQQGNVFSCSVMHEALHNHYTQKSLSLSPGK
light: B1 light
notes: HuAM4G7 IgG1 Fc variant
B18: S239D/L328Y (antibody, human IgG1, kappa)
heavy: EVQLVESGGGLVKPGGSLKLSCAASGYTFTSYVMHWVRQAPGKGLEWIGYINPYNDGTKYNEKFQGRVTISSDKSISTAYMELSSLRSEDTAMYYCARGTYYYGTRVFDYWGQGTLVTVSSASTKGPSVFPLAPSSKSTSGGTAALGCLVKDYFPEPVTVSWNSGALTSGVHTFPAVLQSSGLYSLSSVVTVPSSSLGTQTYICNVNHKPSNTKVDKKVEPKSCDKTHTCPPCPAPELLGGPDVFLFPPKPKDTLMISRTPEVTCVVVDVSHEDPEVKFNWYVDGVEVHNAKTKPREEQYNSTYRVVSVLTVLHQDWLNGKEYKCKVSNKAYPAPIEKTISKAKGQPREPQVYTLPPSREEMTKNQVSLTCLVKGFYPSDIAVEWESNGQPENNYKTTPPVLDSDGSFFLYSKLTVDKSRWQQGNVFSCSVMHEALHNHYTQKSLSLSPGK
light: B1 light
notes: HuAM4G7 IgG1 Fc variant
B19: S239D/H268D/L328W (antibody, human IgG1, kappa)
heavy: B1 heavy with F239L, H272D, Y332W
light: B1 light
notes: HuAM4G7 IgG1 Fc variant
B20: S239D/S267A/L328Y (antibody, human IgG1, kappa)
heavy: B1 heavy with F239L, S271A
light: B1 light
notes: HuAM4G7 IgG1 Fc variant
B21: S239D/H268D/L328F (antibody, human IgG1, kappa)
heavy: B1 heavy with F239L, H272D, Y332F
light: B1 light
notes: HuAM4G7 IgG1 Fc variant

Biological target: T1, human FcγRIIb receptor protein (R&D Systems) (human, UniProt P31994 46-217)
T1 construct: Analyte injected over antibodies captured on a protein A/G chip (Biacore); also called CD32b
T1 sequence (looked up): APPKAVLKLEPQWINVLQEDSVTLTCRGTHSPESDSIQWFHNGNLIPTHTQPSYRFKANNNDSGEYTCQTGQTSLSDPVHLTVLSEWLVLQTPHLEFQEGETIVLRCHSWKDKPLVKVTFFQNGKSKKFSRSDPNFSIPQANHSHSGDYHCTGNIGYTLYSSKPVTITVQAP
Test: SPR (Biacore)
Method: Variants were screened for receptor affinity using Biacore™ technology, also referred to as Biacore herein, a surface plasmon resonance (SPR) based technology for studying biomolecular interactions in real time. SPR measurements were performed using a Biacore 3000 instrument (Biacore, Piscataway, N.J.). A protein A/G (Pierce Biotechnology) CM5 biosensor chip (Biacore) was generated using a standard primary amine coupling protocol. All measurements were performed using HBS-EP buffer (10 mM HEPES pH 7.4, 0.15 M NaCl, 3 mM EDTA, 0.005% vol/vol surfactant P20, Biacore). Antibodies at 20 nM or 50 nM in HBS-EP buffer were immobilized on the protein A/G surface and FcγRs were injected. After each cycle, the surface was regenerated by injecting glycine buffer (10 mM, pH 1.5). Data were processed by zeroing time and response before the injection of FcγR and by subtracting appropriate nonspecific signals (response of reference channel and injection of running buffer). Kinetic analyses were performed by global fitting of binding data with a 1:1 Langmuir binding model using BIAevaluation software (Biacore).

| Binder | Fold FcγRIIb [fold] | binding result |
| --- | --- | --- |
| B1 | 6.82 |  |
| B2 | 8.34 |  |
| B3 |  | no binding |
| B4 | 21.7 |  |
| B5 | 53.2 |  |
| B6 | 14.4 |  |
| B7 | 22.3 |  |
| B8 | 0.0372 |  |
| B9 | 13 |  |
| B10 | 11.9 |  |
| B11 | 54.1 |  |
| B12 | 15.9 |  |
| B13 | 24.4 |  |
| B14 | 2.08 |  |
| B15 | 27.8 |  |
| B16 | 7.41 |  |
| B17 |  | no binding |
| B18 | 5.56 |  |
| B19 | 51.1 |  |
| B20 | 19.8 |  |
| B21 | 8.79 |  |

— patent US20170355766A1 (Xencor, published 2017)
